Consider ten molecules from patent US12297265B2, “Antibody and use thereof” (SICHUAN KELUN-BIOTECH BIOPHARMACEUTICAL CO., LTD., priority 2018, dated 2025).

Test [1] addresses T1, human Claudin18.2 (Homo sapiens, UniProt P56856). As to the kind of experiment: Affinity of chimeric and humanized antibodies to Ba/F3-Claudin 18.2 cells (IntelliCyt). The class given is binding. Details: expressed in transfected cells; host or cells: Ba/F3 (BaF/3, DSMZ ACC300), hygromycin-selected monoclonal line. An excerpt:
In order to evaluate the anti-Claudin18.2 humanized antibodies, codon optimized cDNAs of the heavy chains and the light chains of the candidate humanized antibodies from Example 6 were synthesized and ligated into pcDNA3.4 (by Nanjing Genscript Biotech Corporation). Expi293F cells (purchased from Thermo Incorporation) were co-transfected with pcDNA3.4 coding the heavy chain and light chain of each antibody. The antibodies were purified from the supernatant using protein A (MabSelect SuRe, GE). The affinity of the humanized antibodies to Claudin18.2 was determined using Ba/F3-Claudin18.2 cells which over-expressed human Claudin18.2. Ba/F3-Claudin18.2 cells (60000 in 10 ul buffer) were incubated with purified humanized antibodies on ice for 30 min, followed by washing with buffer (PBS+2% FBS) twice and addition of Alexa647-labeled goat-anti-human IgG Fc antibody (1:500 dilution). The cells were incubated on ice for another 30 min and analyzed by IntelliCyt.

Test [2] deals with T1, human Claudin18.2. Briefly: FACS affinity of mouse anti-human Claudin18.2 antibodies to Ba/F3-Claudin 18.2 cells. The class given is binding. Details: expressed in transfected cells; host or cells: Ba/F3 (BaF/3, DSMZ ACC300), hygromycin-selected monoclonal line. As to the method: The affinity of the candidates to Claudin18.2 was measured using FACS. Single hybridoma clone 1E9.2, 2C6.9, 6B9.22, 9C8.1, 16A9.11, 19G10.14 and 19H11.6 were cultured in serum-free medium and mouse antibodies were purified from 100 mL supernatant by protein A chromatography (MabSelect SuRe, GE). Ba/F3-Claudin18.1 and Ba/F3-Claudin18.2 cells were incubated with the purified mouse antibodies at various concentrations on ice for 30 min and mouse IgG was used as negative control (Thermo Fisher, Cat: 31903), followed by washing with FACS buffer (PBS+2% FBS) twice. The cells were then incubated with a fluorescent goat-anti-mouse secondary antibody (Jackson ImmunoResearch, Cat: 115-605-071) on ice for 30 min before FACS analysis.

B1: 1E9.2-hz41: humanized antibody of 1E9.2; VH SEQ ID NO: 32, VL SEQ ID NO: 33 (antibody, V domains shown)
VH: EVQLVESGGGLVKPGGSLRLSCAASGFSFSNSAMSWVRQAPGKGLEGVATISSGDSYTYYPDSVKGRFTISRDNAKNSLYLQMNSLRAEDTAVYYCARQGYGNALDYWGQGTLVTVSS
VL: DIVMTQSPDSLAVSLGERATINCKSSQSLLNSGNQKNYLTWYQQKPGQPPKLLIYWSSTRESGVPDRFSGSGSGTDFTLTISSLQAEDFAVYYCQNDYYYPLTFGGGTKVEIK
modifications: heavy chain variable region of humanized antibody 1E9.2hz41; light chain variable region of humanized antibody 1E9.2hz11/1E9.2hz21/1E9.2hz31/1E9.2hz41
In the case of B1, the “Max MFI” value with human Claudin18.2 [1] is 11.28 ×10^6.

B2: 1E9.2-hz31: humanized antibody of 1E9.2; VH SEQ ID NO: 31, VL SEQ ID NO: 33 (antibody, V domains shown)
VH: EVQLVESGGGLVKPGGSLRLSCAASGFSFSNSAMSWVRQAPGKGLEGVATISSGDSYTYYADSVKGRFTISRDNAKNSLYLQMNSLRAEDTAVYYCARQGYGNALDYWGQGTLVTVSS
VL: DIVMTQSPDSLAVSLGERATINCKSSQSLLNSGNQKNYLTWYQQKPGQPPKLLIYWSSTRESGVPDRFSGSGSGTDFTLTISSLQAEDFAVYYCQNDYYYPLTFGGGTKVEIK
modifications: heavy chain variable region of humanized antibody 1E9.2hz31; light chain variable region of humanized antibody 1E9.2hz11/1E9.2hz21/1E9.2hz31/1E9.2hz41
Consider B2, for which, in the test with human Claudin18.2 [1], the “Max MFI” value was 10.64 ×10^6.

B3: 1E9.2-hz21: humanized antibody of 1E9.2; VH SEQ ID NO: 30, VL SEQ ID NO: 33 (antibody, V domains shown)
VH: EVQLVESGGGLVKPGGSLRLSCAASGFSFSNSAMSWVRQAPGKGLEGVSTISSGDSYTYYADSVKGRFTISRDNAKNSLYLQMNSLRAEDTAVYYCARQGYGNALDYWGQGTLVTVSS
VL: DIVMTQSPDSLAVSLGERATINCKSSQSLLNSGNQKNYLTWYQQKPGQPPKLLIYWSSTRESGVPDRFSGSGSGTDFTLTISSLQAEDFAVYYCQNDYYYPLTFGGGTKVEIK
modifications: heavy chain variable region of humanized antibody 1E9.2hz21; light chain variable region of humanized antibody 1E9.2hz11/1E9.2hz21/1E9.2hz31/1E9.2hz41
Turning to B3, the “Max MFI” value with human Claudin18.2 [1] is 14.56 ×10^6.

B4: 6B9.22: mouse anti-human Claudin18.2 monoclonal antibody; VH SEQ ID NO: 50, VL SEQ ID NO: 51 (antibody, V domains shown)
VH: QVQLQQSGAELVKPGASVKMSCKAFGYTFTSYPIEWMKQNHGKSLEWIGNFHPYNDDTKYNEKFKGKAKLTVEKSSSTVYLELSRLTSDDSAVYYCARTYYGNSFAYWGQGTLVTVSS
VL: DIVMTQSPSSLTVTAGEKVTMSCKSSQSLLNSGNQKNYLTWYQQKPGQPPKLLIYWASSRDSGVPHRFTGSGSGTDFTLTISSVQAEDLAFYYCQNDYFYPFTFGAGTKLELK
modifications: heavy chain variable region sequence of mouse antibody 6B9.22; light chain variable region sequence of mouse antibody 6B9.22
Consider B4, for which, in the test with human Claudin18.2 [2], the “Max MFI (Max Mean Fluorescence Intensity)” value is on record as 3.624 ×10^6.

B5: 16A9.11: mouse anti-human Claudin18.2 monoclonal antibody; VH SEQ ID NO: 46, VL SEQ ID NO: 47 (antibody, V domains shown)
VH: EVMLVESGGGLVKPGGSLKLSCAASGFSFSNSAMSWVRQTPEKRLEGVATISSGDSYTYYPDSVKGRFTISRDTAKNSLYLQMSSLRSEDTAVYYCTRQGYGNAMDYWGQGTSVTVSS
VL: DIVMTQSPSSLTVTAGEKVTMSCKSSQSLLNSGNQKNYLTWYQQKPGQPPKLLIYWSSTRESGVPDRFTGSGSGTDFTLTISSVQAEDLAVYYCQNDYYYPLTFGAGTKLELK
modifications: heavy chain variable region sequence of mouse antibody 16A9.11; light chain variable region sequence of mouse antibody 16A9.11
As to B5, the “Max MFI (Max Mean Fluorescence Intensity)” value in the test with human Claudin18.2 [2] is recorded as 5.815 ×10^6.

B6: 1E9.2: mouse anti-human Claudin18.2 monoclonal antibody; VH SEQ ID NO: 1, VL SEQ ID NO: 2 (antibody, V domains shown)
VH: EVMLVESGGGLVKPGGSLKLSCAASGFSFSNSAMSWVRQTPEKRLEGVATISSGDSYTYYPDSVKGRFTISRDNAKNSLYLQMSSLRSEDTAVYYCARQGYGNALDYWGQGTSVTVSS
VL: DIVMTQSPSSLTVTAGEKVTMSCKSSQSLLNSGNQKNYLTWYQQKPGQPPKLLIYWSSTRESGVPDRFTGSGSGTDFTLTISSVQAEDLAVYYCQNDYYYPLTFGAGTKLELK
modifications: heavy chain variable region of mouse antibody 1E9.2; light chain variable region of mouse antibody 1E9.2
In the case of B6, in the test with human Claudin18.2 [2], the “Max MFI (Max Mean Fluorescence Intensity)” value is listed as 5.085 ×10^6.

B7: 9C8.1: mouse anti-human Claudin18.2 monoclonal antibody; VH SEQ ID NO: 48, VL SEQ ID NO: 49 (antibody, V domains shown)
VH: QVQLQQSGAELVRPGSSVKISCKASGYAFSNYWMNWVKQRPGQGLEWIGQIYPGDGDTNYNGKFKGKATLTTDKSSSTAYMQLSSLTSEDSAVYFCARLYYGNSFAYWGQGTLVTVSS
VL: DIVMTQSPSSLTVTAGEKVTVSCKSSQSLLNSGNQKNYLTWYQQKPGQPPKLLIYWASTRESGVPDRFTGSGSGTDFTLTISSVQAADLAIYYCQNDYFYPFTFGGGTKLEIK
modifications: heavy chain variable region sequence of mouse antibody 9C8.1; light chain variable region sequence of mouse antibody 9C8.1
For the molecule B7, in the test with human Claudin18.2 [2], the “Max MFI (Max Mean Fluorescence Intensity)” value is given as 4.969 ×10^6.

B8: 2C6.9: mouse anti-human Claudin18.2 monoclonal antibody; VH SEQ ID NO: 3, VL SEQ ID NO: 4 (antibody, V domains shown)
VH: QVQLKESGPGLVAPSQSLSITCTVSGFSLTRYGVSWVRQPPGKGLEWLGVIWGDGNTNFHSFLKSRLSISKDSSKSQVFLKLNSLQTDDTATYYCARVNFGNALDYWGQGTSVTVSS
VL: DIVMTQSPSSLTVTAGEEVTMSCKSSQSLLNSGNQKNYLTWYQQKPGQPPKLLIYWASTRDSGVPDRFTGSGSGTDFTLTISSVQSEDLAVYYCQNDFIFPLTFGAGTKLELK
modifications: heavy chain variable region of mouse antibody 2C6.9; light chain variable region of mouse antibody 2C6.9
Turning to B8, the “Max MFI (Max Mean Fluorescence Intensity)” value in the test with human Claudin18.2 [2] was 6.111 ×10^6.

B9: 19H11.6: mouse anti-human Claudin18.2 monoclonal antibody; VH SEQ ID NO: 44, VL SEQ ID NO: 45 (antibody, V domains shown)
VH: EVMLVESGGGLVKPGGSLKLSCAASGFSFSNSAMSWVRQTPEKRLEGVATISSGDSFTYYPDTVKGRFTISRDNAKNSLYLQMSRLRSEDTAVYYCARQGYGNALDYWGQGTSVTVSS
VL: DIVMTQSPSSLTVTAGEKVTMTCKSSQSLLNSGNQKNYLTWYQQKPGQPPKLLIYWSSTRESGVPDRFTGSGSGTDFTLTISSVQAEDLAVYYCQNDYYYPLTFGAGTKLELK
modifications: heavy chain variable region sequence of mouse antibody 19H11.6; light chain variable region sequence of mouse antibody 19H11.6
Take B9: the “Max MFI (Max Mean Fluorescence Intensity)” value in the test with human Claudin18.2 [2] was 6.008 ×10^6.

B10: 19G10.14: mouse anti-human Claudin18.2 monoclonal antibody; VH SEQ ID NO: 52, VL SEQ ID NO: 53 (antibody, V domains shown)
VH: QVQLKESGPGLVAPSQSLSITCTVSGFSFTSYGVHWVRQPPGKGLEWLGVIWAGGSTDYNAALMSRLSIRKDNSKSQVFLKMNSLQIADTAMYYCARDGHGKVGFDVWGAGTTVTVSS
VL: DIVMTQSPSSLSVSAGEKVTMNCKSSQSLLNSGNQKNYLAWYQQKPGQPPKLLIYGASTRESGVPDRFTGGGSGTDFTLTISSVQAEDLAIYYCQNDHFYPFTFGSGTKLEIK
modifications: heavy chain variable region sequence of mouse antibody 19G10.14; light chain variable region sequence of mouse antibody 19G10.14
With B10, in the test with human Claudin18.2 [2], the “Max MFI (Max Mean Fluorescence Intensity)” value is listed as 3.501 ×10^6.
